According to paper PMC9063849, “Crystal structure of the middle and C-terminal domains of Hsp90α labeled with a coumarin derivative reveals a potential allosteric binding site as a drug target” (Acta Crystallographica. Section D, Structural Biology, 2022):

Experiments:
[1] = target: the molecule itself; experiment: SEC + other: dynamic light scattering; Hsp90αC+ at 1.0 mg/ml and FL Hsp90α at 2.1 mg/ml for DLS, 20 mM HEPES pH 7.2, 150 mM NaCl, 25°C; without inhibitors
[2] = target: the molecule itself; experiment: crystal structure; MDCC-labelled Hsp90αMC crystallised in 0.1 M succinic acid pH 6.5, 12% PEG 3350, 20 mM calcium chloride; 3.5 Å; hexamer through crystallographic symmetry
[3] = target: the molecule itself; experiment: SEC; size-exclusion chromatography of the purified protein, 20 mM HEPES Na pH 7.2, 150 mM NaCl
[4] = target: the molecule itself; experiment: dynamic light scattering; 3 mg/ml Hsp90αMC in 20 mM HEPES pH 7.2, 150 mM NaCl, 25°C; without or with 0.5 mM inhibitors (chlorobiocin, derrubone, coumermycin A1 or MDCC; 5% DMSO); dimers to hexamer

B1: Hsp90α_433–696 (Hsp90αC+) (domain or fragment)
chain: not shown
notes: Hsp90α, human, residues 433-696; The results speak of 'the CTD'; also called the CTD; source: E. coli, purified (same procedure as for Hsp90αMC); not shown: 6xHis, N-terminal, cleaved
stoichiometry N [1]: 4

B2: Hsp90α_23–699_E47A (FL Hsp90α) (domain or fragment)
chain: not shown
notes: Hsp90α, human, residues 23-699 with E47A; N-terminal truncation (printed as Δ23) and C-terminal tail removed; also called full-length (FL) Hsp90α; source: E. coli, purified (same procedure as for Hsp90αMC); not shown: 6xHis, N-terminal, cleaved
stoichiometry N [1]: 6

B3: MDCC–Hsp90αMC (Hsp90α 293–699 covalently linked to MDCC at Cys374) (domain or fragment)
chain: not shown
modifications: MDCC {7-diethylamino-3-[N-(2-maleimidoethyl)carbamoyl]coumarin} covalently linked to Cys374
notes: Hsp90α, human, residues 293-699 (middle and C-terminal domains), labelled with MDCC at Cys374; Three molecules in the asymmetric unit; the hexamer is formed through crystallographic symmetry; also called MDCC-labeled Hsp90αMC; source: E. coli, purified; 0.2 mM Hsp90αMC incubated with 0.5 mM MDCC on ice for 30 min, supernatant used; not shown: 6xHis, N-terminal, cleaved
stoichiometry N [2]: 6

B4: Hsp90α_293–699 (Hsp90αMC), middle and C-terminal domains of human Hsp90α (domain or fragment)
chain: not shown
notes: Hsp90α (90 kDa heat-shock protein alpha), human, residues 293-699 (middle and C-terminal domains); TEV site between the tag and the protein; also called Hsp90α MD and CTD; apo Hsp90αMC; source: E. coli, purified (Ni-NTA, TEV cleavage, second Ni-NTA, size-exclusion chromatography); not shown: 6xHis, N-terminal, cleaved
stoichiometry N [3]: 2 | stoichiometry N [4]: 6
